Earlier results in patent US20150010606A1, “INTRA-ARTICULAR INJECTION AND IMPLANT ATTACHMENT OF MOLECULE CONSISTING OF LUBRICIN AND EXTRACELLULAR SUPEROXIDE DISMUTASE OR HYALURONIC ACID AND EXTRACELLULAR SUPEROXIDE DISMUTASE” (Arthrex, Inc., priority 2013, published 2015).

Tests used:
osteoarthritis = details: intra-articular injection; human clinical studies; compared to a placebo control
[1] = system: collagen-induced arthritis; details: mice with collagen-induced arthritis treated with SOD3

Row | Molecule | treatment of osteoarthritis (osteoarthritis) | histology of the joint [1] | joint swelling and deformity [1]
1 | SOD derived from bovine erythrocytes: superoxide dismutase derived from bovine erythrocytes, injected intra-articularly to treat osteoarthritis | significant success when compared to a placebo control |  | 
2 | Extracellular superoxide dismutase [Cu—Zn] (protein, UniProt P08294 19-240, looked up) Extracellular superoxide …: WTGEDSAEPNSDSAEWIRDMYAKVTEIWQEVMQRRDDDGALHAACQVQPSATLDAAQPRVTGVVLFRQLAPRAKLDAFFALEGFPTEPNSSSRAIHVHQFGDLSQGCESTGPHYNPLAVPHPQHPGDFGNFAVRDGSLWRYRAGLAASLAGPHSIVGRAVVVHAGEDDLGRGGNQASVENGNAGRRLACCVVGVCGPGLWERQAREHSERKKRRRESECKAA |  | less destruction of cartilage and bone, less infiltration of mononuclear cells, and less proliferation of synovial cells | suppression of joint swelling and deformity
